This series is described as follows: yeast display, Sf9 membrane polyspecificity reagent, FACS + sequencing; frameworks hold sequencing errors. The gist of the method: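 Polyreactivity labels are assigned by the sorting gate from which each nanobody was recovered. The gates were low and high (top ~1%), set on anti-HA fluorescence for expression and streptavidin fluorescence for reagent binding. Before sorting, galactose-induced (36–48 hours) yeast display cells were stained for 1 hour at 4 °C with 10% biotinylated, detergent-solubilized Sf9 membrane reagent.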
Regarding “QVQLVESGGGLVQAGGSLRLSCAASGFTFSNYTMGWYRQAPGKERELVAAIRSSGGRTYYADSVKGRFTISRDNAKNTVYLQMDSLKPEDTAVYYCNAEYRTDGGYWVQGTQVTVSS”, the “polyreactivity (PSR sort gate)” value is listed as “low polyreactivity”.
Take “QVQLVESGGGLVQAGGSLRLSCAASGSTFYRNAMGWYRQAPGKERELVAAINSTDSTNYADSVKGLFTISRDNAKNTVYLQMNSLKPEDTAVYYCAAVGDNLATAEYDYWGQGTQVTLSS”: the “polyreactivity (PSR sort gate)” value was “low polyreactivity”.
As for “QVQLVESGGGLVQAGGSLRLSCAASGRTFPNYAMGWYRQAPGKERELVAAISYSGGTTYYADSVKGRFTISRDNAKNTVYLQMNSLKPEDTAVYDCNALRLGYGLFHYDYWGQGTQVTVSS”, the “polyreactivity (PSR sort gate)” value was “low polyreactivity”.
With “QVQLVESGGGLVQAGGSLRLSCAASGGTFQAYAMGWYSQAPGKDREFDAAITAGGGSTSYADSVKGRFTISRDNAKNTVDLQLNRLKPEDSAAYYCAVDGGFPVTDYDYWGQGTQVTVST”, the “polyreactivity (PSR sort gate)” value is reported as “low polyreactivity”.
Regarding “QVQRVESGGCLVQAGGSLRLSCAASGYTFGSNAMGWYIQAPGKERELVAAITYGAGRTSYADSVKGRFTISRDNAKNTVYLQMNSLKPEDTAVYYCAAVWGYVIWVDSAVYREYDYWGQGTQVTVSS”, the “polyreactivity (PSR sort gate)” value is “high polyreactivity”.
Take “QVQLVESGGGLVQAGGSLRLSCAASGSTFISNDMGWYRQAPGKEREFVAAITASGGSTYYADSVKGRFTISRDYAKNTVYLQMNSLKPEDTAVYYCARVYTFLDVYFRYGYWGQGTQVTVSS”: the “polyreactivity (PSR sort gate)” value is recorded as “low polyreactivity”.
With “HVQLVESGGGLVQAGGSLRVSCAASGRIFYYCARGWYGQAPGKEWELVAAITWSGGSTYYADSLMGRFTISRDNANNTVYVHKNSLKPEDPAVAYCTKSAAITGNGQMDYWGQCTQVTVSS” the entry was “low polyreactivity”.
Turning to “QVQLVESGGGLVQAGGSLRLSCAASGRTFKYYAMGWYRQAPGKERELVAAITSTGGSTYYADSVKGRFTISRDNAKNTVYLQMHSLKPEDTAVYYCNRYTQYRDRSDNHWGQGTQVTVSS”, the “polyreactivity (PSR sort gate)” value is listed as “high polyreactivity”.
Consider “QVQLVESGGGLVQAGGSLRLSCAASGRSFSIYAMGCYRQAPGKERELVASISRGISTNYADSVKGRFTISRDNAKNTVYLQMNSLKPEDTAVYYCASDLFSNYRYWGQGTQVTVSS”, for which the “polyreactivity (PSR sort gate)” value is “high polyreactivity”.
Turning to “QVQLVESGGGLVQAGGSLRLTCAASGYKFKSNVMGWYRQAPGKERELVAAISWSGGRTYYADSLKGRFTISRDNAKNTVYLQMNSLKPEDTAVYYCAAVGRQSNYYVDYDYWGQGTQVTVSS”, the “polyreactivity (PSR sort gate)” value is on record as “high polyreactivity”.
As for “QVQLVESGGGLVQAGGSLRLSCAASGIIFSSNAMGWYRQAPGKERELVAAITRRGGSTRYADSVKGRFTISRDNAKNTVYLQMNSLKPEDTAVYYCNALTGYPYRWGISYPMDYWGQGTQVTVSS”, the “polyreactivity (PSR sort gate)” value is listed as “high polyreactivity”.
“QVQLVESGGGLVQAGGSLRLSCAASGRIFYYNSMGWYREAPGKERELVAAIRSGGGSTYYADSVKGRFTISRDNAKNTVYLQMNSLKPEDTAVYYCAAEPSQRYPWSGYDYWGQGTQVTVSS”: the “polyreactivity (PSR sort gate)” value is “low polyreactivity”.
On to “QVQLVESGGGLVQAGGSLRLSCAASGITFSAYAMGWYRQAPGKERELVARISTDADTYYADSVKGRFTISRDNAKNTVYLQMNSLKPEDTAVYYCNADWSWYNYYDFDYWGQGTQVTVSS”, for which the “polyreactivity (PSR sort gate)” value is “low polyreactivity”.
“QVQLVESGGGLVQAGGSLRLSCAASGSIFKVYAMGWYRQAPGKERELVATISGSGGSTYYADSVKGRFTISRDNAKNTVYLQMNSLKPEDTAVYYCAAEVYVPDYFQHKFDVEYEYWGQGTQVTVSS”: the “polyreactivity (PSR sort gate)” value was “low polyreactivity”.
Then “QVQLVESGGGLVQARGSLRLSSGASGSTFATDYAMGWYRQAPGKERELDAAIAYTSASTYYADSVKGRITISRDNAKNPVYLQMNTLKPEDTAVYYCAADYGGTREYYWGQGTQVTVSS”, with “low polyreactivity”; and “QVQLVESGGGLVQAGGSLRLSCAASGSIFAPYAMGWYRQAPGKEREVVAAITSGVGSTYYADSVKGRFTISRDNAKNTVYLQMNSLKPEDTAVYYCAADSSYLTYWEYDYWGQGSQVTVSS”, with “low polyreactivity”; and “QVQLVESVGGLFQAGRSLRLSGAASGTTFVWNAMGWYRPAPGKERELVATITLSTGSTYYADSVKGRFTISRDNAKNSVYLQMNSLKPEDTAVYYGNTEIYVDIISDYGYWGQGTQVTVSS”, with “low polyreactivity”.
Consider “QVQLVESGGGLVHAGVSLRLSCAASGIIFAHYAKGWYRQAPGKERELVAAISSSGATTYYADSVKGRFTISRDNAKNTVYLQMNSLKPEDTAVYYCNTETYHVRRLFDYWGQGTQVTVSS”, for which the “polyreactivity (PSR sort gate)” value is reported as “low polyreactivity”.
For “QVQLVESGGGLVQAGGSLRLSCAASGFIFTQNGMGWYRQAPGKERELVAAISWSAGGTYYADSVKGRFTISRDNAKNTVYLQMNSLKPEDTAVYYCNARVYNVFREFNSWGQGTQVTVSS”, the “polyreactivity (PSR sort gate)” value is “low polyreactivity”.
Then “QVQLVESGGGLVQAGGSLRLSCAASGSIFRRYAMGWYRQAPGKERELVAGITRGGSTYYADSVKGRFTISRDNAKNTVYLQMNSLKPEDTAVYYCNAVRRGLPVVGAYDYWGQGTQVTVSS”, with “high polyreactivity”; and “QVQLVESGGGLVQAGGSLRFSCAASGGIYYLYAMGWYRQAPGKEREFVAAISSSGGSTNYADSVMGRFTISRDNAKNTVYLQMNSLKRDDSAVYYCNAVDWKQEVGGWVEYDYWGQGTQVNVSS”, with “high polyreactivity”; and “QVQLVESGGGLFQAGGSLRISCAASGGTFFRYAMGWYRQAPGKERELVAAITWSSGSTYYADSVKGRFTISRDNAKNTGYLQMNSLKPEDTAVYYYDYYTYGDYWGQGTEVTVSS”, with “low polyreactivity”.
Take “QVQLVESGGGLVQAGGSLRLSCAASGSTFGRYAMGWYRQAPGKEREMVAGITYGSTYYADSVKGRFTISRDNAKNTVYLQMNSLKPEDTAVYYCAADLSYTCVHGYRSDTLMDYWGQGTQVTVSS”: the “polyreactivity (PSR sort gate)” value is recorded as “low polyreactivity”.
“QVQLVESGGGLVQAGGSLRLSCAASGYTFPIYAMGWYRQAPGTERELVAGISKNGGSTYYADSVKGRFTISRDNAKNTVYLQMNSLKPVDTAVYYCNASAWGRPYYLGSYFVYPGYEYWGQGTEVTVSS”: the “polyreactivity (PSR sort gate)” value was “low polyreactivity”.
Take “QVQLVESGGGLVQAGGSLRISCAASGIIFRYYAMGWYRQAPGKERELVARISSGGSTKYADSVKGRYTISRDNAKNTVYLQMNSLKPEDTAVYYCAAEYYSLRYAIFYYWGQGTQVTVSS”: the “polyreactivity (PSR sort gate)” value is recorded as “high polyreactivity”.
Then “QVQLVESGGGLVQAGGSLRLSCAACGSIFYLNAMGWYRQAPGKERELVAAITNGGSTYADSVKGRFTISRDNAKNTVYLQMNSLKPEDTAVYYCATRSWELGDYWGQGTQVTVSS”, with “low polyreactivity”; and “QVQLVESGGGLVQAGGSLRLSCAASGSTFRYNAMGWYRQAPGKERELVASISYNGGNTYYADSVKGRFTISRDNSKNTVYLQMNSLKPEDTAVYYCAAVPIKRGLILGDRGYNYWGQGTQVTVSS”, with “high polyreactivity”.
As for “QVQLVESGGGLVQAGGSLRLSCAASGRIFNLNAMGWYRQAPGKERELVAAISKSGTRTYYADSVKGRFTISRDNAKNTVYLQMNSLKQEDTAVYYCAAEALYYDRLGWVYLRYDYWGQGTQVTVSS”, the “polyreactivity (PSR sort gate)” value is reported as “high polyreactivity”.
With “QVQLVESGGCLVQAGGSLRLSCAASGRIFESNAMGWYRQAPGKERELVAAISVNGASTSYADSVKGRFTISRDNAKNTVYLQMNSLKPEDTAVYYCAARRGKGYYYWGQGTQVTVSS” the entry was “high polyreactivity”; with “QVQLEESGRGLVQAGGSLRLSCAASGRTFAYYAMGWYRQAPGKERELVAAITSGGSTNYADSVKGRFTISRDNAKNTVYLQMNSLKPEDTAVYYCNARFRWPWSTYDYWGQGTQVTVSS”, “high polyreactivity”.

These data come from the nanobody polyreactivity screen of Harvey et al. (2022).
